Laboratory results taken from patent US5948825A, “Microemulsion preparation containing a slightly absorbable substance” (Institute for Advanced Skin Research Inc., priority 1993, dated 1999).

Columns and labels:
[1] = absorption by the rectum (through the mucous membrane); format: in vivo; settings: rats; relative to subcutaneous injection (integrated blood concentration over time) = 100%
Method: Rats were starved from the day before experiment until there was little feces left in the abdomen. […] Immediately after the injection, the anus was bound with a rubber band to prevent the leakage of the microemulsion. Blood was sampled at specified time intervals and the concentration of the drug in the blood was determined.

[2] = administration into the nasal cavity, closure technique; format: in vivo; settings: rats; relative to subcutaneous injection (integrated blood concentration over time) = 100%
Excerpt: Rats were anesthetized and medisected in the neck to expose the windpipe and esophagus. Part of the windpipe was incised and a polyethylene tube was inserted into the windpipe to secure the airway, followed by ligation. The nostril and the opening in the incisive caval on the oral cavity side were closed with an adhesive. Part of the esophagus was incised for insertion of a nutrition catheter until its end reached into the nasal cavity. The part of the esophagus into which the nutrition catheter was inserted was ligated. […] Blood was sampled at specified time intervals and the change in the concentration of the drug in the blood was determined over time.
Availability: Relative value with the availability upon subcutaneous

[3] = absorption by the alimentary tract (duodenum); format: in vivo, rats; settings: route not given; relative to subcutaneous injection = 100%
Method: Rats were incised in the abdomen and a silicone rubber tube was passed through the alimentary tract from the stomach wall to the duodenum, followed by suturing of the stomach wall, peritoneum and skin through which the tube penetrated. […] As in (1), blood was sampled at specified time intervals and the concentration of the drug in the blood was determined.

Substance	Availability, rectum [1]	Availability, nasal cavity [2] [%]	availability values (macromolecular peptides such as erythropoietin) [3]
calcitonin: peptide drug of low absorbability through the mucous membrane	22-23%	50	–
erythropoietin: macromolecular peptide drug	–	–	2-3%
